B1: recombinant full-length human Id2 protein, preparation with oligomers of the type Id2nβMEn (natural protein, UniProt Q02363 1-134, looked up)
chain: MKAFSPVRSVRKNSLSDHSLGISRSKTPVDDPMSLLYNMNDCYSKLKELVPSIPQNKKVSKMEILQHVIDYILDLQIALDSHPTIVSLHHQRPGQNQASRTPLTTLNTDISILSLQASEFPSELMSNDSKALCG
modifications: mixed disulfide with βME, as Id2nβMEn (n = 2–4)
notes: the His-tag of pET22b(+) was excluded by a double stop; Another preparation of the same construct as m1; the formula implies one βME for each monomer, so one cysteine of each monomer is free or in an intermolecular disulfide
B2: recombinant full-length human Id2 protein, sample Id2’ (natural protein, UniProt Q02363 1-134, looked up)
chain: B1 chain
modifications: both cysteine residues (Cys-42 and Cys-133) disulfide-bonded to β-mercaptoethanol (βME); one oxidized methionine residue, Met(O)
notes: the His-tag of pET22b(+) was excluded by a double stop; The most homogeneous unlabeled preparation; also called Id2 1–134

Assays:
[1] = biological target: the molecule itself; assay: MALDI-TOF mass spectrometry; lyophilized protein dissolved in water, α-cyano-4-hydroxycinnamic acid as matrix
[2] = biological target: the molecule itself; assay: dynamic light scattering; Id2’ 80 μM in pure water, 21 °C, two weeks old filtered sample; globular model for molecular weight
[3] = biological target: the molecule itself; assay: NMR diffusion-ordered spectroscopy (DOSY); unlabeled Id2’ at 0.27 mM in H2O/D2O (94:6, v/v); calibration curve with protein standards
[4] = biological target: the molecule itself; assay: dynamic light scattering; Id2’ 80 μM in pure water, 21 °C, measured immediately after filtration (0.2 μm); globular model for molecular weight

Protein	stoichiometry N [1]	stoichiometry N [2] [monomers]	stoichiometry N [3] [monomers]	stoichiometry N [4] [monomers]
B1	2 to 4			
B2		16	~16	3
